Test results taken from US9044511B2, “Peptide” (Marealis AS, priority 2010, dated 2015).
“And” between values parts separate entries of the source, which are not always exact repeats. Identical values can stand only once. Like-named read-outs stand apart in the source and are kept apart here. Peptide text beside a SMILES is read from it.

T1: ACE (Sigma A 6778) (Oryctolagus cuniculus, UniProt P12822)
T1 construct: purchased Sigma A 6778
T1 sequence (P12822 34-1310): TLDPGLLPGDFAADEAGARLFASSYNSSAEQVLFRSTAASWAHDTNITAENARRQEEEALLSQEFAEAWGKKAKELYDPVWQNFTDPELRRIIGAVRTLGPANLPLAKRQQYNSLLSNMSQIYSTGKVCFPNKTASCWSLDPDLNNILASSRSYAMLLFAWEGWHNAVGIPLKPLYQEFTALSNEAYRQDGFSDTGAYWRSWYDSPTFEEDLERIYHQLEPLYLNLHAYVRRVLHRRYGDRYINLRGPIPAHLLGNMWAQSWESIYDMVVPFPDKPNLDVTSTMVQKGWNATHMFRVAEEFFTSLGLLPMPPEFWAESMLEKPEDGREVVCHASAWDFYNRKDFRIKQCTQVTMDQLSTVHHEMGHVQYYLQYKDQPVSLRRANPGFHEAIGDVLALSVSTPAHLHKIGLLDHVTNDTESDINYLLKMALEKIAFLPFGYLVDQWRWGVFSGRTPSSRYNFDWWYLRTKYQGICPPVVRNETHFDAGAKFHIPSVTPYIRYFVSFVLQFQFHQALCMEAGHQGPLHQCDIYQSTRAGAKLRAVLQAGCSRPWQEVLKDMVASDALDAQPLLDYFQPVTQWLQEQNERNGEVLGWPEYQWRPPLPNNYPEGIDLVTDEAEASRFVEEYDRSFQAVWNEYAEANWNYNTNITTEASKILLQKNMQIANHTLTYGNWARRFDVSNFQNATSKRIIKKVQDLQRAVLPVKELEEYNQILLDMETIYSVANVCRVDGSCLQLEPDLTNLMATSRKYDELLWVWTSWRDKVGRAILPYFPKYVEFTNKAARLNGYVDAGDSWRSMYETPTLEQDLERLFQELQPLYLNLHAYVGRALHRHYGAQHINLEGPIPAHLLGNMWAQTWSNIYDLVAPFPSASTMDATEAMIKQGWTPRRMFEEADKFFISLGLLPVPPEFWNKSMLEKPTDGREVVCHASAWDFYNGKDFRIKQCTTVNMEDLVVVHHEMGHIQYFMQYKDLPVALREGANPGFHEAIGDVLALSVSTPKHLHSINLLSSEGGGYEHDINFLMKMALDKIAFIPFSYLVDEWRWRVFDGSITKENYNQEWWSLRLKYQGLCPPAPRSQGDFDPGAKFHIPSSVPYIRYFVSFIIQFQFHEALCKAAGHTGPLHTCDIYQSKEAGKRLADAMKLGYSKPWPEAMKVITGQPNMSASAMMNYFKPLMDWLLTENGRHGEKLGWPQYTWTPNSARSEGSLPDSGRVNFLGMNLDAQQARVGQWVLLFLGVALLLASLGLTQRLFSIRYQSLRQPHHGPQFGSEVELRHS

T2: Angiotensin I-converting enzyme (ACE) (Sigma A 6778) (UniProt P12822 34-1310, limits assumed)
T2 sequence (looked up): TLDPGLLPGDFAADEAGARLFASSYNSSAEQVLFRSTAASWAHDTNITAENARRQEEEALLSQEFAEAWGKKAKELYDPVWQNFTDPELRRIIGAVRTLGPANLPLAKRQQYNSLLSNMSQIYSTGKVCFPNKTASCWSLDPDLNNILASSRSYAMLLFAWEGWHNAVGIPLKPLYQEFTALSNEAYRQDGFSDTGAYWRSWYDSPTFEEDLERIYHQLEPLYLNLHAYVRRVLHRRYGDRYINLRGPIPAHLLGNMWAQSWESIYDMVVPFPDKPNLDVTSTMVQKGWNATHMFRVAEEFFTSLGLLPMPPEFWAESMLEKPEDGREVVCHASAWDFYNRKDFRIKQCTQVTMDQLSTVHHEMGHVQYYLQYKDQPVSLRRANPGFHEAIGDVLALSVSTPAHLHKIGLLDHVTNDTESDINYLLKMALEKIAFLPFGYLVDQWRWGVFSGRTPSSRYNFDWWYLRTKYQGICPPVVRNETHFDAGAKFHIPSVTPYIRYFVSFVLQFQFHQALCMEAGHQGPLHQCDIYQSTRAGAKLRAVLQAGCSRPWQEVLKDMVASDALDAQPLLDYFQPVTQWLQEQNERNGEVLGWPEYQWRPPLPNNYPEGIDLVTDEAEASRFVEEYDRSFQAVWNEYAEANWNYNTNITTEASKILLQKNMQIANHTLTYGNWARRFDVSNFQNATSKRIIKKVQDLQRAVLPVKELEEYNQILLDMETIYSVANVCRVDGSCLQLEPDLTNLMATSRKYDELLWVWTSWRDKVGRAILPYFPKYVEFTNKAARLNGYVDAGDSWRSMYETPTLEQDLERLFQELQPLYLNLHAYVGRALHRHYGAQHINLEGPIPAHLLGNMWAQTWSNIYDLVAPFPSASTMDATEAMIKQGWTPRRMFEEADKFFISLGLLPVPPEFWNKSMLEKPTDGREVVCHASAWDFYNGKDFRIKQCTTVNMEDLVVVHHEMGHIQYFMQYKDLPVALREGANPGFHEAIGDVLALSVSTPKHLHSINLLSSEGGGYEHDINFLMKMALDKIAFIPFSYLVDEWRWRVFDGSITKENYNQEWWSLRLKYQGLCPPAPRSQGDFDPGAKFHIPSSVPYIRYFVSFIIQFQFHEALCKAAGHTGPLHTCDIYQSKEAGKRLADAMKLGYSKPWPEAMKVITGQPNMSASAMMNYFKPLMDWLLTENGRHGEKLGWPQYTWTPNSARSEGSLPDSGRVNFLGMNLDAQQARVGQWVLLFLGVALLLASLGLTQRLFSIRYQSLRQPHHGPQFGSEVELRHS

T3: ACE from rabbit lung acetone extract (rabbit, UniProt P12822 34-1310, limits assumed)
T3 sequence (looked up): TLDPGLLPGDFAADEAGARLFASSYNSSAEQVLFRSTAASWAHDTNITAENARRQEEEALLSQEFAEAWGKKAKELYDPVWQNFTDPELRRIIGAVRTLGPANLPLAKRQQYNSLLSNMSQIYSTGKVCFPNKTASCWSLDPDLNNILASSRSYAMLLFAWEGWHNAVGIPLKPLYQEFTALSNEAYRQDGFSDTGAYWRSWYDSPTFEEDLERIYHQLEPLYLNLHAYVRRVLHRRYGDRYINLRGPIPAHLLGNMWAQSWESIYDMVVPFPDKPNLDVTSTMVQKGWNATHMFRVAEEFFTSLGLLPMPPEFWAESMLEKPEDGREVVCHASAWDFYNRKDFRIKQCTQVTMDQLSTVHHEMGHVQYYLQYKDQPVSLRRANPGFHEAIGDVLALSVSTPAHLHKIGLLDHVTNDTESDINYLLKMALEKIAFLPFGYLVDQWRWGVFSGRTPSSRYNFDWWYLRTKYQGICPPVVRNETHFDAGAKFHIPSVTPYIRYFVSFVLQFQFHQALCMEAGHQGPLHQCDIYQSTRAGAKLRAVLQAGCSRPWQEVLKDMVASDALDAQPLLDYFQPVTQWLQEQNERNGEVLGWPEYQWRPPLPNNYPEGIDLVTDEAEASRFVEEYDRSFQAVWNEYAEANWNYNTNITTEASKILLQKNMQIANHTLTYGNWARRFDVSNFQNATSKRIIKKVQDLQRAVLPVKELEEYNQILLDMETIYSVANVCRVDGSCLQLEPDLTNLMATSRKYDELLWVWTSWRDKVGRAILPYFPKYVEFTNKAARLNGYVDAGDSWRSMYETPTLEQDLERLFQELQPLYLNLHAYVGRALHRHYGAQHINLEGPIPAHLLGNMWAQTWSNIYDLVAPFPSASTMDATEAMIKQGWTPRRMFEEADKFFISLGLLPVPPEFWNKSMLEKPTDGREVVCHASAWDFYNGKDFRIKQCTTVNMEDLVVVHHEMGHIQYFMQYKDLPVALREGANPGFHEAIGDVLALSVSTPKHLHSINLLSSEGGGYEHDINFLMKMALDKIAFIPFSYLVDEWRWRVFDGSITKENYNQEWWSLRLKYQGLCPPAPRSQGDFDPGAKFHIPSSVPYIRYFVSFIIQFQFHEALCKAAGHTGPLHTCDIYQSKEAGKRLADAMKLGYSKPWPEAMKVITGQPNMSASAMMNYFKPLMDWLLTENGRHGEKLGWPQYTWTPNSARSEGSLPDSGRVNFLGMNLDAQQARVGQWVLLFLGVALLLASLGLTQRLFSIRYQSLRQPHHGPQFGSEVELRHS


What was measured:
ACE (Sigma A 6778) = molecular target: T1, ACE (Sigma A 6778); experiment: ACE-inhibitory activity, HHL substrate, hippuric acid by HPLC (method of Dragnes et al. / Cushman and Cheung); format: biochemical
Source text: ACE-inhibitory activity may be assayed using known methods, for example based on the method reported by Cushman and Cheung (1971) by measuring the end product hippuric acid (HA) from the enzymatic reaction between ACE (Sigma A 6778) and the substrate HHL (Sigma H 1635). (CUSHMAN, D. W. & CHEUNG, H. S. (1971). Concentrations of Angiotensin-Converting Enzyme in Tissues of Rat. Biochimica Et Biophysica Acta 250(1), 261-265 and Dragnes et al. J Food Composition and Analysis 2009; 22: 714-17). A different suitable assay is disclosed by Vermeirssen et al. (2002), J. Biochem Biophys. Methods 51 (2002), pages 75-87, which is incorporated herein by reference. Briefly, this is a spectrophotometric method in which ACE inhibition is measured using the substrate furanacryloyl-Phe-Gly-Gly and rabbit lung acetone extract as the ACE source. The IC50 may be determined.
An FSY peptide was analysed via an enzyme assay wherein ACE produces hippuric acid (HA) from the substrate hippuryl-histidine-leucine (HHL). The HA concentration was determined by quantitative HPLC analyses and a decreased concentration was correlated with inhibitory effect. ACE-inhibitory activity was determined based on the method reported by Cushman and Cheung (1971) by measuring the end product hippuric acid (HA) from the enzymatic reaction between ACE (Sigma A 6778) and the substrate HHL (Sigma H 1635), essentially as described in Dragnes et al. J Food Composition and Analysis 2009; 22: 714-17. A 100 μl volume with 2 mM HHL in 100 mM sodium borate buffer pH 8,3 was pre-incubated at 37° C. for 30 minutes with 25 μl inhibitor (FSY peptide diluted in Sodium borate buffer). Then the assay was initiated by adding 50 μl ACE (10 mU). The enzymatic reaction was stopped by addition of 215 μl 1 M HCl.
Quantitative HPLC analyses were performed on a Shimadzu (Shimadzu Corporation, Japan), using a Symmetry-Shield reverse phase C-18 Intelligent Speed column. The HA was eluted at ambient temperature using a mobile phase that consisted of 0.05% aqueous trifluoroacetic acid and HPLC-grade acetonitrile. A 2 min linear gradient was used, beginning after 0.5 min isocratic elution with 5% acetonitrile and ending with 90% acetonitrile. The flow-rate was maintained at 2 mL min ? 7 1 and the UV absorption was measured at 228 nm.
Determinations of IC50 values depend on the precise assay conditions, which makes it difficult to make meaningful comparisons between IC50 values determined in separate assays. A comparative analysis was therefore carried out to compare the ACE-inhibitory activity of the FSY peptide to known ACE-inhibitory peptides. ACE-inhibitory activity was assayed using the method of Dragnes et al. described in Example 1.

[1] = molecular target: T2, Angiotensin I-converting enzyme (ACE) …; experiment: cell-based or functional assay
[2] = molecular target: T2, Angiotensin I-converting enzyme (ACE) …; experiment: cell-based or functional assay; remark: listed apart in the source
[3] = molecular target: T3, ACE from rabbit lung acetone extract; experiment: cell-based or functional assay
[4] = comparative analysis, read-out: IC50 in μg/ml (converted)

Row | Molecule | IC50 (ACE (Sigma A 6778); [4]) [µM] | IC50 in µM (ACE inhibition, method of Dragnes et al.) [1] [µM] | IC50 in µg/ml (ACE inhibition, method of Dragnes et al.) [1] [µg/mL] | IC50 of ACE inhibition (method of Vermeirssen et al.) [3] [µM] | further results
1 | CC(C)[C@H](N)C(=O)N[C@@H](Cc1ccc(O)cc1)C(=O)O [VY, reference compound] (H-Val-Tyr-OH; N-terminus and C-terminus assumed) | 12.8 | – | – | – | –
2 | N[C@@H](Cc1ccccc1)C(=O)N[C@@H](CO)C(=O)N[C@@H](Cc1ccc(O)cc1)C(=O)O [FSY] (H-Phe-Ser-Tyr-OH; N-terminus and C-terminus assumed) | 2.17 | – | – | – | IC50 (ACE (Sigma A 6778); comparative analysis, read-out: IC50): 2.2 µM; IC50 (ACE (Sigma A 6778); typical measurements, read-out: IC50 with respect to ACE inhibition, method of Dragnes et al.): ~2.2 µM
3 | VY | – | 13 | 3.6 | – | –
4 | FTY [FTY peptide] | – | – | – | ~274 | IC50 of ACE inhibition (method of Dragnes et al.) [2]: ~59 µM
5 | FSY [FSY peptide] | – | 2.2 | 0.9 | ~7.7 | IC50 of ACE inhibition (hippuric acid from HHL, HPLC; method of Dragnes et al.) [2]: ~4 µM and 1.7 µM and ~2.2 µM
6 | IPP | – | 3.2 | 1.04 | – | –
